assay: soluble on expression in E. coli; label from the status in PepcDB or PDB records

Row | Sequence | soluble on expression in E. coli
1 | MSTAEFAQLLENSILSPDQNIRLTSETQLKKLSNDNFLQFAGLSSQVLIDENTKLEGRILAALTLKNELVSKDSVKTQQFAQRWITQVSPEAKNQIKTNALTALVSIEPRIANAAAQLIAAIADIELPHGAWPELMKIMVDNTGAEQPENVKRASLLALGYMCESADPQSQALVSSSNNILIAIVQGAQSTETSKAVRLAALNALADSLIFIKNNMEREGERNYLMQVVCEATQAEDIEVQAAAFGCLCKIMSKYYTFMKPYMEQALYALTIATMKSPNDKVASMTVEFWSTICEEEIDIAYELAQFPQSPLQSYNFALSSIKDVVPNLLNLLTRQNEDPEDDDWNVSMSAGACLQLFAQNCGNHILEPVLEFVEQNITADNWRNREAAVMAFGSIMDGPDKVQRTYYVHQALPSILNLMNDQSLQVKETTAWCIGRIADSVAESIDPQQHLPGVVQACLIGLQDHPKVATNCSWTIINLVEQLAEATPSPIYNFYPALVDGLIGAANRIDNEFNARASAFSALTTMVEYATDTVAETSASISTFVMDKLGQTMSVDENQLTLEDAQSLQELQSNILTVLAAVIRKSPSSVEPVADMLMGLFFRLLEKKDSAFIEDDVFYAISALAASLGKGFEKYLETFSPYLLKALNQVDSPVSITAVGFIADISNSLEEDFRRYSDAMMNVLAQMISNPNARRELKPAVLSVFGDIASNIGADFIPYLNDIMALCVAAQNTKPENGTLEALDYQIKVLEAVLDAYVGIVAGLHDKPEALFPYVGTIFQFIAQVAEDPQLYSEDATSRAAVGLIGDIAAMFPDGSIKQFYGQDWVIDYIKRTRSGQLFSQATKDTARWAREQQKRQLSL | soluble
2 | MTVISSHWWRCISLNSKSNRCSSSSGNHLMMGGKKTCVLMRATFMVIATDYEFERRWCRRTGTIAGCHLISKQAEVGEMMCMIEL | not soluble
3 | GAMDPDLEATLRAIVHSATSLVDARYGAMEVHDRQHRVLHFVYEGIDEETVRRIGHLPKGLGVIGLLIEDPKPLRLDDVSAHPASIGFPPYHPPMRTFLGVPVRVRDESFGTLYLTDKTNGQPFSDDDEVLVQALAAAAGIAVANARLYQQAK | soluble
4 | MKKEIIVYTISDSLGETSQKLLAAASAQYPDISFLNRYNFSFVTTEEELLEILKDALKDKALVVSTLVSKQLITAAKEFSERTGLLYLDLMAPFFELIQAKAGVDPIEEPGRRHQLDRAYFDKISAIEFAVKYDDGKNPQGFLDSDILLLGVSRTSKTPVSMYLANQGYRVSNLPLIPEVPLPPILEEMDPQKMIGLVCSPETLGQIRSSRLASLGLGNETSYTNVERIEQELAYAEEIFAKYGIPVIDVTAKSVEETAFLIKEKLDERN | not soluble
5 | MGSDKIHHHHHHMDTQQLKVVSQQVQEQANFPPEFNRLLNELPDEVKHRIFPHLELVQLELGDVVCEAGSKVRYVYFPLNSIISLLYVMENGASAEIAVVGNDGMVGVALFMGGESTTSRAIVQSAGVAYRLFGQRLKDEFNRHGALLHLLLRYSQILLTQMAQTAVCNRHHSIEQQLCRWLLLSIDRLPDDRVMMTQELIANMLGVRREGVTDAAGKLQRIGIINYSRGNIEVLDRKLLEQTCCECYSVVKQESERLMPLKKFTKK | not soluble
6 | MSKAVIDTGVFVDYIDRKSPLHDVARNVINSIGQLEVLLPYVTIAEICYVTARVLREAGIEEWLEKSVEFVEWLQRHPAVEVVCSTELDVEAAKVKLRYGLALADCYVLALSKLKNCKAVFRKREKEMPDKVEKDFDVIFLEDYVGGDR | not soluble
7 | EMRNLGGGEILHACPQESLDKPLPCIVFYHGFTSSKLVYSYFAVALAEAGFRVIMPDAPEHGARYQGDEAGRMQRFWPILQQNFREFPALREAIIAEGWLEGERLAVAGASMGGMTALGIMTHHPELNSVACLMGSGYFRSLSQTLFPSPDFDVDSLNEWDVSHQLASLARRPLLLWHGDADDVVPPEETFRLEQALRQGDLAARLTCVWQKGVRHRITPEALATTVAFFQQHL | not soluble
8 | MGSDKIHHHHHHMNYKYYTIVILGLLAFSACEKDDIDIPATDNEVNQWIEQTMRENYLWYSELPDKSSLDFSLDPESFFKGLLSDKDGKELSDGHHYFSQLEKATVTKSIYDANNSYGFDFATSNLKDGGSTYKIAIVLYVLKDSPAEEAGLKRGDWILGVNGSLGSIQDYDVLRSGGSVSLQLGKETGNTKGFVSTRRVTLNASRTVEDSPFLKDSVYTYGNKRIGYLMYNHFASGPDEYDYSDTSYNLYLQQLFEKFKSRNVNEFVLDLRYNGGGLVNCAQLLASLLVRENVLGEPLCIMEYNDKNSNKNETLPLLKTTEVMAGNLNLQRLFVLTGSTTASASELIINSLRSYLDVRVIGKQTFGKTVGMTIYNESKKYGWILSPVTFHIYNKDREADYEDGFHPDVAIDEFKSDLAEFGDLKDPLLGQAIYEITGQSPLLRSATPRGNREIQYNPPLSYKDNLLLIPKD | not soluble
9 | MSSTSRIMRPDDANIVGNVHGGTILKMIEEAGCIIGTRHCNTQSGDRCLAALARVERTDFLHPMFIGEVAHVSAEITYTSKHSVEVQVNVLAENIVTGAKKVTNKATLWYVPLSLQNVDKIIEVPPIEYSSPEREEAGKKRYEAQKLERLEDKVRNGEIIMSVSLPEPYTVVCSQSSLIHLVGPSDCTLHGFVHGGVTMKLMDEVAGIVAARHCKTNIVTASVDAINFHRKIKKGCVITVSGRMTFTSNKSMEI | soluble
10 | MSAPTTFSVALHNETATAQLMADLALLVGPGDVITLTGDLGAGKTAAARAMIRYLADDEALEVPSPTFTLVQGYELPPFPVMHADLYRVEDESELEEIGLSPLPDATLVLIEWPERAPSALPEDRIDIALTHRPALGSNARAADITGYGKSAAQVARLKALREFLDASGYLDAMRRRMAGDASTRSYARLLRDDEIVILMNFPQRPDGAALYNGKSYSAAVHLAENVKPFVAIDEGLRAQGISAPAIHHADLDHGFLISEDFGSEGVIEGNPPRPIPERYEAATDVLAVLHGKTLPETLPLDGQSYAIPVFDTEAMLIEIGLMPEWYLPDRNAPLSEPKRAEFFAMWRELLKKPLAAPRTWIIRDYHSPNLIWLGMRTGIERVGVIDFQDTVLGPQSYDVVSLLQDARIDVPENLELTLLSRYIKARRAGDASFDPAGFAELYAIMSAQRNTRLLGTFARLNRRDGKPHYLRHQPRIWTYLQRSLAHPALSHLRDWYLANVPPPQRPSQEPAPEPPQGLEHHHHHH | soluble
11 | MTIYPKLILDALATVRYPGTGKNLVEAGMVEDNIRIEGMKVSFSLIFEKPTDPFMKSVIKAAETAILTHVGKEVEIVGNISVKTVQAARPEVGKLLPHVKNIIGISSGKGGVGKSTVSANLAVALAKLGYKVGLLDADVFGPSMPKMFQVEDARPYAEKIDGRDMIIPVEKYGVKLLSIGFFVDPDQATLWRGGMASNALKQLIGDAAWGDLDYFLIDLPPGTSDIHLTVVQTLALTGAVVVSTPQAVALADARKGINMFTNDKVNVPILGLVENMAWFTPAELPENKYYLFGKEGAKKLAEEMNVPLLGQIPIVQSICEGGDKGTPVALDENTVTGRAFLALAASVVRQVDKRNVEMAPTKIVELHKLEHHHHHH | soluble
12 | MGSDKIHHHHHHMLIRLGYEIAIECAEATPVISLLEIHKDRQADIKRQTRVLTSPSVPTKLYHDLHGNGCRRFTAPAGTFRILYDAVIEDSGETDEVNTLAREVPVAELPDEVLFYLLGSRYCETDHLSSLAWQLFGHLPSGWARVQAIVDYVHNRLSFGYGYARSTRTAAQAHEERVGVCRDFAHLAITLCRCMNIPARYVNGYLGDIGVPIDPAPMDFSAWMEVFLDGKWYTFDPRHNQPRTGRIVIARGRDATDVPLLHSFGPHRLCLFKVWTYEQEGRSFNPPHRGIDRTVSAQMLA | not soluble
13 | VAFLCQLFGVYRSSYQAWHHRVKKPDTERIRLKSLVREAFNEGKGSAGARTIAAMVTAKGIPLGRWRAGKLMAELGLVSRQQPKHRYSHQEQEHLDIPNDLDRQFTVTEPNQVWCGDVTYIWTGKCWAYLAVVLDLFARKPIGWAMSFSADSELTKRALEMAFESRRKPQGVMFHRDQGSHYTRKAFRRLLWRYGIKQSLSRRGNCWDNSPMERFFRSLKSEWVPEEGYSDFRKAFRSITNYIQGEPRQSRDFPYVFITFLYPASIRRANGAGAG | soluble
14 | MGSDKIHHHHHHMAKSKSTYSCTECGGQTLKWQGQCPHCQAWNTLVEAMSEKAAARFTPVSESREVQSLSEVEAEEEQRYSTGLLEFDRVLGGGLVQGGVVLLGGDPGIGKSTLLLQALCNMSLLPLARNVLYVSGEESARQVAMRAKRMGVDAKALHLLAEIRLERIQEVLAERKPDVAVIDSIQTVYSDALQSAPGSVAQVRECAAQLTRLAKASGTGMILVGHVTKEGALAGPRVLEHMVDTVLYFEGDTHSSFRLIRAFKNRFGAVNELGVFAMTEKGLREVSNPSALFLSHHGGQVPGSCIMVTQEGTRPLLVEIQALVDEAHSPNARRLSVGLEQNRLAMLLAVLHRHAGIACFDQDVFVNAVGGVKITEPGADLAVLLAIVSSLKNRPLPEKTVVFGEVGLAGEVRPVQRGLERLREAAKLGFVQAIVPKANKPKATPPGIEIIAVERVEEAVARMR | not soluble
15 | MGSDKIHHHHHHMKTVTRYACQKCGYQSAKWLGKCPDCAAWNSFVEEVTGGGRKGAASLPAATRPVPICDVASEAETRLSCGISEFDRVLGGGLVSGSLVLIGGDPGIGKSTILLQVMDHLARTAGPVLYVSGEESARQTKMRGERLGIGARELLVLAETSLELILSQVTALAPRALVIDSIQTVFSANLESAPGSVSQVRECAGRLMELAKRNGIPTLLVGHVTKDGSLAGPRVLEHMVDTVLYFEGDPGHAFRILRAVKNRFGSTNEIGVFEMKEGGLSEVRNPSELFLAERPLGVSGSAVVTTIEGSRPLLVELQALVTPSSLGVPRRTTLGVDHNRLALLVAVLDKKVGLHLSGQDIFLNAAGGARLSEPAIDLGMVAALASSHLDKIIDPHTVIVGEVGLAGEVRAITQAETRVREAAKLGFTRAVIPAGSVRQVGDVPGMNVVGVKSLDEALEQLF | not soluble
16 | MSLMQEETFYSVRMRASMNGSHEDGGKHISGGERLIPFHEMKHTVNALLEKGLSHSRGKPDFMQIQFEEVHESIKTIQPLPVHTNEVSCPEEGQKLARLLLEKEGVSRDVIEKAYEQIPEWSDVRGAVLFDIHTGKRMDQTKEKGVRVSRMDWPDANFEKWALHSHVPAHSRIKEALALASKVSRHPAVVAELCWSDDPDYITGYVAGKKMGYQRITAMKEYGTEEGCRVFFIDGSNDVNTYIHDLEKQPILIEWEEDHDSEGHHHHHH | soluble
17 | MNLDKVNKYIKDFEKTIKKPKINFDKSKFYVGVDLGTANIVITILDKDGKPVAGVTQRSRVVRDGIVVDFMEAIEIVRKLKENLEKKLGIEITEGYTAIPPGVEQGSVRAIVNVIESAGIDVLKVVDEPTAASYVLGITDGVVVDLGGGTTGISILEKGKVIFVADEPTGGTHMTLVLAGSYGIDFETAEDIKTDKKKEKEVFVQITPVLQKMAAIVKKYIKDYKVKDVFLVGGACSFDGSESIFERELGLNIYKPYMPVYITPLGIALAGMKSLEHHHHHH | soluble
18 | PKIAGIDLGTTYSSIGIYHAVTGETIILPDDLGKKSVPSVVAFLPNGTVLIGTRATEQQEHNPKRTIYDAKRFIGRNFEKNNKDFLSDQKRYPFKINLDSEGKAFFEIPLDSGTKNVYPEEIGSLIIGYLKSAAAKHLGVTLGQVVISCPAEFNEKQRNFTAKAAEIAEMEVRRVISEPTAAALAYGLHKKQGVENVVVVDLGGGTLDVSVLWLQGGVFVTQAMAGNNRLGGQDFNDRVQKHLISKIAEKFGKTIDNKEDIQQIRMEVEKGKIRLTNVPSTTISLNLKTVGKWNYELTRDEFETLNGDLLKAIELPITAALADANLDTADVDEIVLVGGSTQVPAVRKIVGRFFKKSANYGVDPELAVVTGASVQAGVIGGGWPLQVAAMELPAKRRKRHFFTEEQKENEKDRTISEL | not soluble

From the DeepSol protein solubility set
